The source of these data is patent publication US20130203616A1.

The target of experiment [1] is Human serum albumin (HSA) (human) (UniProt P02768). Kind of experiment: bridging ELISA (HSA on plate, biotin-HSA in solution), antibody spiked in normal human serum, after Protein A/G enrichment and acid elution. In general terms: In an ELISA, binding on a coated surface is turned into a signal by an enzyme label.
Experiment [2] has the same target. Kind of experiment: competitive indirect ELISA, antibody in 1% pooled normal human serum preincubated with HRP-conjugated HSA, then Protein A/G plate.
For experiment [3] the target is unchanged. Kind of experiment: competitive indirect ELISA, antibody in buffer captured on Protein A/G plate, HRP-conjugated HSA detection.
The target is the same in experiment [4]. Kind of experiment: competitive indirect ELISA, antibody in neat human serum, mixed with HRP-conjugated HSA, then Protein A/G plate.
For experiment [5] the target is unchanged. Kind of experiment: bridging ELISA after sample preparation, plate coated with 20 µg/mL HSA, antibody in neat human serum.

As for Rabbit anti-HSA antibody, ABCAM ab31657, the detection limit in experiment [1] worked out at 125 ng/mL; in experiment [2], 3 µg/mL. In addition, the lowest antibody concentration detected in experiment [3] was 0.48 ng/mL. In experiment [4], this substance yielded an assay sensitivity of 10 µg/mL. Besides, in experiment [5], the limit of detection worked out at 250 ng/mL.
